Assay results as given in PMC11698917 (Nature Communications, 2025).
Several values for one entry are separate records, joined by “and”; a condition that tells them apart may be missing. Equal values may be shown once.

T1: human VANGL2, full-length (FL), purified (human, UniProt Q9ULK5 1-521)
T1 sequence (looked up): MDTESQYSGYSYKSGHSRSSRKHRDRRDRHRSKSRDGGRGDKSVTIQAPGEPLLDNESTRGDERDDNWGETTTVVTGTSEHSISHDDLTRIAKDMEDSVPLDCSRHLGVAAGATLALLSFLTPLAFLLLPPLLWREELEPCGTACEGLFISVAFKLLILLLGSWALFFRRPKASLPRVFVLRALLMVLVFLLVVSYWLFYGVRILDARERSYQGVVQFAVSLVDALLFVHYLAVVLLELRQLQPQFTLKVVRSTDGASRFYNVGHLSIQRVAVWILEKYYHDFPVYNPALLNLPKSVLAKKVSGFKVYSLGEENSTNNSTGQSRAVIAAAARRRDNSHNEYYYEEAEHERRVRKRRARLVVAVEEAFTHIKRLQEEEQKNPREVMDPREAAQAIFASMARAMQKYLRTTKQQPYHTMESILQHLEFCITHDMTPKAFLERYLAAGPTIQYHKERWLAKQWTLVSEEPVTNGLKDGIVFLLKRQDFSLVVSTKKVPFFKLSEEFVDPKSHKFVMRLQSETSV

B1: human VANGL1, full-length (FL), purified (natural protein, UniProt Q8TAA9 1-524, looked up)
chain: MDTESTYSGYSYYSSHSKKSHRQGERTRERHKSPRNKDGRGSEKSVTIQPPTGEPLLGNDSTRTEEVQDDNWGETTTAITGTSEHSISQEDIARISKDMEDSVGLDCKRYLGLTVASFLGLLVFLTPIAFILLPPILWRDELEPCGTICEGLFISMAFKLLILLIGTWALFFRKRRADMPRVFVFRALLLVLIFLFVVSYWLFYGVRILDSRDRNYQGIVQYAVSLVDALLFIHYLAIVLLELRQLQPMFTLQVVRSTDGESRFYSLGHLSIQRAALVVLENYYKDFTIYNPNLLTASKFRAAKHMAGLKVYNVDGPSNNATGQSRAMIAAAARRRDSSHNELYYEEAEHERRVKKRKARLVVAVEEAFIHIQRLQAEEQQKAPGEVMDPREAAQAIFPSMARALQKYLRITRQQNYHSMESILQHLAFCITNGMTPKAFLERYLSAGPTLQYDKDRWLSTQWRLVSDEAVTNGLRDGIVFVLKCLDFSLVVNVKKIPFIILSEEFIDPKSHKFVLRLQSETSV

Key:
[1] = biological target: T1, human VANGL2, full-length (FL), purified; experiment: cryo-EM structure
AUC = biological target: the molecule itself; experiment: AUC

Row | Binder | binding result [1] | stoichiometry N (AUC)
1 | NPGMNRFLGLYGEDDDSWCSSSSSSSDSEEEGYFLGQPIPQPRPQR (peptide, UniProt Q96MT3 745-790, looked up) [PK1^745-790 peptide, purified from E. coli] | binds | 
2 | B1 |  | ~6 and 3
